Target: sgk1_human SGK1 (UniProt O00141)
Sequence (O00141 whole entry): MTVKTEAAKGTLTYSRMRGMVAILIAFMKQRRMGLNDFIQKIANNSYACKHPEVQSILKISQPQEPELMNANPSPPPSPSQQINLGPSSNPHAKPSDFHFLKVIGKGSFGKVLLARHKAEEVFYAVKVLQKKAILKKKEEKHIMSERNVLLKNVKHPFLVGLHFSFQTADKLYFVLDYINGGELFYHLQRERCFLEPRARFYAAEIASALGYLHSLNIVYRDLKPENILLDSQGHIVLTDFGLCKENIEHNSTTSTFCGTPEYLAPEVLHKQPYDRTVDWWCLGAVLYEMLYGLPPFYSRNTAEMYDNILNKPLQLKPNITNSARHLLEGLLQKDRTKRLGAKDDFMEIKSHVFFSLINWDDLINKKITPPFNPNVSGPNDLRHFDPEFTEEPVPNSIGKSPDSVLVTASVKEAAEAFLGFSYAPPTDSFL

Serine/threonine-protein kinase WNK4 (Mus musculus), Q80UE6 Q562E
effect of a mutation on the interaction: decreasing interaction strength

Serine/threonine-protein kinase WNK4 (Mus musculus), Q80UE6 S1169D
effect of a mutation on the interaction: decreasing interaction strength

Source: IntAct's records for PubMed 17360471
